Experimental data taken from article PMC10324392, “Enabling Peptide Ligation at Aromatic Junction Mimics via Native Chemical Ligation and Palladium-Mediated S-Arylation”.

Assays:
[1] = molecular target: Max DNA-binding domain (synthetic, S-arylated);Myc DNA-binding domain (synthetic, S-arylated) (;, UniProt P61244;P01106 ;, F43C, then Cys43 S-arylated with Pd-1 to a Phe mimic|Y402C, then Cys402 …); test: EMSA; equimolar Myc and Max; 1 uM DNA; 0, 4, 8 uM protein; EMSA: 10 mM MES, 150 mM KCl, 1 mM MgCl2, 10% glycerol, room temperature 1 h, 10% TBE gel, pH not given; BLI: 1x PBS, 0.1% BSA, 0.02% Tween-20, streptavidin sensors, temperature not given; details: tags: ;; copies: 1;1; (22 bp, only one strand printed)
[2] = molecular target: Max DNA-binding domain (synthetic, S-arylated) (UniProt P61244, F43C, then Cys43 S-arylated with Pd-1 to a Phe mimic); test: BLI; EMSA: 10 mM MES, 150 mM KCl, 1 mM MgCl2, 10% glycerol, room temperature 1 h, 10% TBE gel, pH not given; BLI: 1x PBS, 0.1% BSA, 0.02% Tween-20, streptavidin sensors, temperature not given; details: chain copies: 2; (22 bp, only one strand printed)
Sequence of Max DNA-binding domain (synthetic, S-arylated) (P61244 22-102 F43C): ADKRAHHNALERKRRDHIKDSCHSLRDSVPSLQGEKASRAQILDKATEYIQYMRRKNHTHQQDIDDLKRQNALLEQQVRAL

Sequence of Max DNA-binding domain (synthetic, S-arylated);Myc DNA-binding domain (synthetic, S-arylated) (P61244 22-102, stated change not applied, chain 1 of 2): as the sequence (P61244 22-102 F43C) above, with C22F counted along it
Sequence of Max DNA-binding domain (synthetic, S-arylated);Myc DNA-binding domain (synthetic, S-arylated) (P01106 369-449, stated change not applied, chain 2 of 2): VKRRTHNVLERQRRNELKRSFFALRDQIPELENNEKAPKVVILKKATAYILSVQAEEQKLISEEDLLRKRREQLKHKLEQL

| Binder | binding result [1] | Kd [2] |
| --- | --- | --- |
| E-box DNA probe (22 bp) (dsDNA) DNA 1: CCGGCTGACACGTGGTATTAAT DNA 2: ATTAATACCACGTGTCAGCCGG | binds | – |
| biotinylated E-box DNA probe (BLI) (dsDNA) DNA 1: CCGGCTGACACGTGGTATTAAT DNA 2: ATTAATACCACGTGTCAGCCGG | – | 14.8 ± 0.2 nM |
